In paper PMC4227796:

What was measured:
[1] = target: T1, RecQL4_N388 (Homo sapiens, UniProt O94761 1-388); assay: EMSA
T1 sequence: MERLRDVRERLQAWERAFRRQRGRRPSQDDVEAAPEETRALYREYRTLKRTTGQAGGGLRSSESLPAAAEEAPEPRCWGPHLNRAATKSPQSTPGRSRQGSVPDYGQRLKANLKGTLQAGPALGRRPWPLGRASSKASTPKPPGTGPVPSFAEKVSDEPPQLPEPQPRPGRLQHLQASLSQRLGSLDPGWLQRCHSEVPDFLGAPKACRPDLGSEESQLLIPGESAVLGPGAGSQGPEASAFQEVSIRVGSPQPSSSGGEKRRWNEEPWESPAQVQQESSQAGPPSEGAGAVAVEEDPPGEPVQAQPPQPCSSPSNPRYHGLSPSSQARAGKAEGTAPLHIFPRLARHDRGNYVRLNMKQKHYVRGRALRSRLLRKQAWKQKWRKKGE

[2] = target: T2, RecQL4_FL (Homo sapiens, UniProt O94761 1-1208); assay: EMSA
T2 sequence: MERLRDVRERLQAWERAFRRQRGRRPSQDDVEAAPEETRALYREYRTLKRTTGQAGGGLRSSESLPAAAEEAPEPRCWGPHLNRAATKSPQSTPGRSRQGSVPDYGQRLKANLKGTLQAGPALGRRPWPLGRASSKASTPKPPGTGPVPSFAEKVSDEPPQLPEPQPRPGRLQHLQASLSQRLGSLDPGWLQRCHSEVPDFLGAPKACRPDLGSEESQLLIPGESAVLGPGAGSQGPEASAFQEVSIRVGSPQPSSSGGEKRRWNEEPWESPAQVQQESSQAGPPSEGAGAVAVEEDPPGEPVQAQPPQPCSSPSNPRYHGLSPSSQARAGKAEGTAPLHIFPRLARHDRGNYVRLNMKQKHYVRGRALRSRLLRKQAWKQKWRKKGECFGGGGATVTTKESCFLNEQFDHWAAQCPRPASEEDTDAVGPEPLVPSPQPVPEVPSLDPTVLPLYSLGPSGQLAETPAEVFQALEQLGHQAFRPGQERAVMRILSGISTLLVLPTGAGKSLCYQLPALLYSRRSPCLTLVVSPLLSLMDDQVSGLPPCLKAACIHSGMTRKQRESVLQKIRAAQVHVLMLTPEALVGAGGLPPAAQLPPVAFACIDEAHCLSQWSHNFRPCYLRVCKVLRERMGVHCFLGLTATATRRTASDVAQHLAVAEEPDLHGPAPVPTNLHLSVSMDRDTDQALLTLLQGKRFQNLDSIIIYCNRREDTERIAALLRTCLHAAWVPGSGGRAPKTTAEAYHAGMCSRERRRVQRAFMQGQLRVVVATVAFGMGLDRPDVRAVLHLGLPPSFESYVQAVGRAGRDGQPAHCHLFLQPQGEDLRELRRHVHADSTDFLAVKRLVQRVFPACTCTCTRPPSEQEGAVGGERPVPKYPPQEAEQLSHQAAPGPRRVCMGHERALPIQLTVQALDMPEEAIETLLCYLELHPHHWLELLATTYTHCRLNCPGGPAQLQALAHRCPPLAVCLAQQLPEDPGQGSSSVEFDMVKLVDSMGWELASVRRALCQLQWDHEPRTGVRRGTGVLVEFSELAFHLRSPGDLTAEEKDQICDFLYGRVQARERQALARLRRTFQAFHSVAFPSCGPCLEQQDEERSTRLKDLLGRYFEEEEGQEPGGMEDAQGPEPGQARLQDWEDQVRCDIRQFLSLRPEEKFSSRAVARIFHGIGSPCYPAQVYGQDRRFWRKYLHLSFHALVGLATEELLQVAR

## GCAGAGGCCCGGCACGAGCTTCCCC (ssDNA) [LB2_GC]
[1]
  binding result: binds
[2]
  binding result: binds
